Data reported in paper PMC6351631, “Biochemical and Proteomic Characterization of Recombinant Human α/β Hydrolase Domain 6” (Scientific Reports, 2019).

T1: human alpha/beta hydrolase domain 6 (hABHD6) (Homo sapiens, UniProt Q9BV23, DEL38-40)
T1 construct: gene ABHD6; hΔ29-3-ABHD6 (first 29 residues and Y38YW deleted, N-terminal His6) for MS; full-length hABHD6 in solubilized E. coli membrane fraction for IC50
T1 sequence (Q9BV23 with tags, fused parts or gaps DEL38-40): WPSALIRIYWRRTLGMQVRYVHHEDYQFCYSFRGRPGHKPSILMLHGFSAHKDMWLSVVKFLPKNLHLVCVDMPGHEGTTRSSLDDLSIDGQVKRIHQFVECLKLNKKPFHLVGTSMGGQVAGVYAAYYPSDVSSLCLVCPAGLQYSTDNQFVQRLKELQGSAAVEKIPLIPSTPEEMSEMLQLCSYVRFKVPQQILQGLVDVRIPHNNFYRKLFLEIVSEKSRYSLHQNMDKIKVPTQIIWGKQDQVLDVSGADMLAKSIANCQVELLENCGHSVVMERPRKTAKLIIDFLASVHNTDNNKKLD

B1: human alpha/beta hydrolase domain 6 (hABHD6) (Homo sapiens; DEL38-40) (protein)
chain: WPSALIRIYWRRTLGMQVRYVHHEDYQFCYSFRGRPGHKPSILMLHGFSAHKDMWLSVVKFLPKNLHLVCVDMPGHEGTTRSSLDDLSIDGQVKRIHQFVECLKLNKKPFHLVGTSMGGQVAGVYAAYYPSDVSSLCLVCPAGLQYSTDNQFVQRLKELQGSAAVEKIPLIPSTPEEMSEMLQLCSYVRFKVPQQILQGLVDVRIPHNNFYRKLFLEIVSEKSRYSLHQNMDKIKVPTQIIWGKQDQVLDVSGADMLAKSIANCQVELLENCGHSVVMERPRKTAKLIIDFLASVHNTDNNKKLD

Experiments:
[1] = target: T1, human alpha/beta hydrolase domain 6 (hABHD6); assay: MALDI-TOF MS of tryptic digest showing +[…] Da adduct on purified enzyme; fluorometric AHMMCE inhibition assay; format: binding
[2] = substrate: CCCCC/C=C\C/C=C\C/C=C\C/C=C\CCCC(=O)OC(CO)CO; assay: HPLC quantification of arachidonic acid formed, Michaelis-Menten kinetics (Km); format: biochemical, Homo sapiens

| Molecule | IC50 [1] | Km [2] | Vmax [2] |
| --- | --- | --- | --- |
| CN(C)C(=O)n1nnc(Cc2ccc(-c3ccccc3)cc2)n1 [AM6701] | 900 pM |  |  |
| B1 |  | 139 µM | 0.35 µM/min/mg |
